Assay results published in the RNAGym collection of RNA variant scans (doi:10.1093/molbev/msab373).

B1: Azoarcus group I ribozyme (parent)
chain: GUGCCUUGCGCCGGGAAACCACGCAAGGGAUGGUGUCAAAUUCGGCGAAACCUAAGCGCCCGCCCGGGCGUAUGGCAACGCCGAGCCAAGCUUCGGCGCCUGCGCCGAUGAAGGUGUAGAGACUAGACGGCACCCACCUAAGGCAAACGCUAUGGUGAAGGCAUAGUCCAGGGAGUGGCGAAAGUCACACAAACCGG

Variants of: B1
Test: reverse-splicing fitness (ratio to wild type); higher = more active; in vitro selection; Mg2+ level not given
Procedure, shortened: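 An in vitro group I ribozyme library with randomized positions was T7-transcribed and gel-purified. In triplicate, 10 pmol RNA in EPPS pH 7.5 was reacted with 50 pmoles of a 30-nt RNA substrate for 1 h at 37 °C across several added MgCl2 levels (1–48 mM), then stopped with EDTA. Products were reverse transcribed from a substrate-complementary primer, PCR-amplified and sequenced (HiSeq 4000). Fitness is a variant's read proportion after selection over that before, normalised to wild type.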

Row | Variant | reverse-splicing fitness
1 | GUGCCUUGCGCCGGGAAACCACGCAAGGGAUGGUGUCAAAUUCGGCGAAACCUAAGCGCCCGCCCGGGCGUAUGGCAACGCCGAGCCAAGCUUCGGCGCCUGCGCCGAUGCAGGUGUAGAGACUAGACGGCACCCACCUAAGGCCAACGUUAUGGUGAAGGCAUAGUCCAGGGAGCGGCGAAAGUCACACAAACCGG [A111C A145C C150U U176C] | 0.349
2 | GUGCCUUGCGCCGGGAAACCACGCAAGGGAUGGUGUCAAAUUCGGCGAAACCUAAGCGCCCGCCCGGGCGUAUGGCAACGCCGAGCCAAGCUUCGGCGCCUGCGCCGAUGCAGGUGUAGAGACUAGACGGCACCCACCUAAGGCCAACGUUAUGGUGAAGGCAUAGUCCAGGGAGGGGCGAAAGUCACACAAACCGG [A111C A145C C150U U176G] | 0.11
3 | GUGCCUUGCGCCGGGAAACCACGCAAGGGAUGGUGUCAAAUUCGGCGAAACCUAAGCGCCCGCCCGGGCGUAUGGCAACGCCGAGCCAAGCUUCGGCGCCUGCGCCGAUGCAGGUGUAGAGACUAGACGGCACCCACCUAAGGCCAACGUUAUGGUGAAGGCAUAGUCCAGGGAGAGGCGAAAGUCACACAAACCGG [A111C A145C C150U U176A] | 0.219
4 | GUGCCUUGCGCCGGGAAACCACGCAAGGGAUGGUGUCAAAUUCGGCGAAACCUAAGCGCCCGCCCGGGCGUAUGGCAACGCCGAGCCAAGCUUCGGCGCCUGCGCCGAUGCAGGUGUAGAGACUAGACGGCACCCACCUAAGGCCAACGCUAUGGUGAAGGCAUAGUCGAGGGAGGGGCGAAAGUCACACAAACCGG [A111C A145C C169G U176G] | 0.00691
5 | GUGCCUUGCGCCGGGAAACCACGCAAGGGAUGGUGUCAAAUUCGGCGAAACCUAAGCGCCCGCCCGGGCGUAUGGCAACGCCGAGCCAAGCUUCGGCGCCUGCGCCGAUGCAGGUGUAGAGACUAGACGGCACCCACCUAAGGCCAACGCUAUGGUGAAGGCAUAGUCGAGGGAGAGGCGAAAGUCACACAAACCGG [A111C A145C C169G U176A] | 0.0324
6 | GUGCCUUGCGCCGGGAAACCACGCAAGGGAUGGUGUCAAAUUCGGCGAAACCUAAGCGCCCGCCCGGGCGUAUGGCAACGCCGAGCCAAGCUUCGGCGCCUGCGCCGAUGCAGGUGUAGAGACUAGACGGCACCCACCUAAGGCCAACGCUAUGGUGAAGGCAUAGUCGAGGGAGCGGCGAAAGUCACACAAACCGG [A111C A145C C169G U176C] | 0.0318
7 | GUGCCUUGCGCCGGGAAACCACGCAAGGGAUGGUGUCAAAUUCGGCGAAACCUAAGCGCCCGCCCGGGCGUAUGGCAACGCCGAGCCAAGCUUCGGCGCCUGCGCCGAUGCAGGUGUAGAGACUAGACGGCACCCACCUAAGGCCAACGCUAUGGUGAAGGCAUAGUCAAGGGAGUGGCGAAAGUCACACAAACCGG [A111C A145C C169A] | 0.0285
8 | GUGCCUUGCGCCGGGAAACCACGCAAGGGAUGGUGUCAAAUUCGGCGAAACCUAAGCGCCCGCCCGGGCGUAUGGCAACGCCGAGCCAAGCUUCGGCGCCUGCGCCGAUGCAGGUGUAGAGACUAGACGGCACCCACCUAAGGCCAACGCUAUGGUGAAGGCAUAGUCGAGGGAGUGGCGAAAGUCACACAAACCGG [A111C A145C C169G] | 0.0652
9 | GUGCCUUGCGCCGGGAAACCACGCAAGGGAUGGUGUCAAAUUCGGCGAAACCUAAGCGCCCGCCCGGGCGUAUGGCAACGCCGAGCCAAGCUUCGGCGCCUGCGCCGAUGCAGGUGUAGAGACUAGACGGCACCCACCUAAGGCCAACGCUAUGGUGAAGGCAUAGUCUAGGGAGUGGCGAAAGUCACACAAACCGG [A111C A145C C169U] | 0.118
10 | GUGCCUUGCGCCGGGAAACCACGCAAGGGAUGGUGUCAAAUUCGGCGAAACCUAAGCGCCCGCCCGGGCGUAUGGCAACGCCGAGCCAAGCUUCGGCGCCUGCGCCGAUGCAGGUGUAGAGACUAGACGGCACCCACCUAAGGCCAACGCUAUGGUGAAGGCAUAGUCAAGGGAGCGGCGAAAGUCACACAAACCGG [A111C A145C C169A U176C] | 0.0113
11 | GUGCCUUGCGCCGGGAAACCACGCAAGGGAUGGUGUCAAAUUCGGCGAAACCUAAGCGCCCGCCCGGGCGUAUGGCAACGCCGAGCCAAGCUUCGGCGCCUGCGCCGAUGCAGGUGUAGAGACUAGACGGCACCCACCUAAGGCCAACGCUAUGGUGAAGGCAUAGUCAAGGGAGGGGCGAAAGUCACACAAACCGG [A111C A145C C169A U176G] | 0.007
12 | GUGCCUUGCGCCGGGAAACCACGCAAGGGAUGGUGUCAAAUUCGGCGAAACCUAAGCGCCCGCCCGGGCGUAUGGCAACGCCGAGCCAAGCUUCGGCGCCUGCGCCGAUGCAGGUGUAGAGACUAGACGGCACCCACCUAAGGCCAACGCUAUGGUGAAGGCAUAGUCAAGGGAGAGGCGAAAGUCACACAAACCGG [A111C A145C C169A U176A] | 0.0151
13 | GUGCCUUGCGCCGGGAAACCACGCAAGGGAUGGUGUCAAAUUCGGCGAAACCUAAGCGCCCGCCCGGGCGUAUGGCAACGCCGAGCCAAGCUUCGGCGCCUGCGCCGAUGCAGGUGUAGAGACUAGACGGCACCCACCUAAGGCCAACGUUAUGGUGAAGGCAUAGUCUAGGGAGAGGCGAAAGUCACACAAACCGG [A111C A145C C150U C169U U176A] | 0.0174
14 | GUGCCUUGCGCCGGGAAACCACGCAAGGGAUGGUGUCAAAUUCGGCGAAACCUAAGCGCCCGCCCGGGCGUAUGGCAACGCCGAGCCAAGCUUCGGCGCCUGCGCCGAUGCAGGUGUAGAGACUAGACGGCACCCACCUAAGGCCAACGUUAUGGUGAAGGCAUAGUCUAGGGAGCGGCGAAAGUCACACAAACCGG [A111C A145C C150U C169U U176C] | 0.0139
15 | GUGCCUUGCGCCGGGAAACCACGCAAGGGAUGGUGUCAAAUUCGGCGAAACCUAAGCGCCCGCCCGGGCGUAUGGCAACGCCGAGCCAAGCUUCGGCGCCUGCGCCGAUGCAGGUGUAGAGACUAGACGGCACCCACCUAAGGCCAACGUUAUGGUGAAGGCAUAGUCUAGGGAGGGGCGAAAGUCACACAAACCGG [A111C A145C C150U C169U U176G] | 0.00818
